Like-named read-outs stand apart in the source and are kept apart here.
Key:
[1] = biological target: T1, full length human GLP-1R with N-terminal FLAG tag and C-terminal GFP tag, on CHO cells (human, UniProt P43220 24-463); experiment: flow cytometry, expressing vs parent CHO cells
T1 construct: whole, on cells; the cell line itself is tied to UniProt P43220; also called FLAG-GLP-1R-GFP; CHO-GLP-1R
Protocol: (§1) GLP-1R IgG clones were tested in a binding assay coupled to flow cytometry analysis as follows: FLAG-GLP-1R-GFP expressing CHO cells (CHO-GLP-1R) and CHO-parent cells were incubated with 100 nM IgG for 1 h on ice, washed three times and incubated with Alexa 647 conjugated goat-anti-human antibody (1:200) (Jackson ImmunoResearch Laboratories, 109-605-044) for 30 min on ice, followed by three washes, centrifuging to pellet the cells between each washing step. All incubations and washes were in buffer containing PBS+1% BSA. […] Cells were analyzed by flow cytometry and hits (a hit is an IgG that specifically binds to CHO-GLP-1R) were identified by measuring the GFP signal against the Alexa 647 signal. Flow cytometry data of binding assays with 100 nM IgG are presented as dot plots. Analyses of binding assays with IgG titrations are presented as binding curves plotting IgG concentrations against MFI (mean fluorescence intensity).

[2] = biological target: T1, full length human GLP-1R with …; experiment: flow cytometry, expressing minus parent CHO cells
Protocol: as §1

[3] = biological target: T1, full length human GLP-1R with …; experiment: flow cytometry, expressing vs parent CHO cells; remark: listed apart in the source
Protocol: as §1

[4] = biological target: T1, full length human GLP-1R with …; experiment: flow cytometry titration, CHO GLP1R cells
Protocol: as §1

[5] = biological target: T1, full length human GLP-1R with …; experiment: flow cytometry, GLP1R-expressing CHO cells
Protocol: as §1

B1: GLP1R-221-065 (antibody, V domains shown)
VH: QVQLVESGGGVVQPGRSLRLSCAASGFTFNNYAMHWVRQAPGKGLEWVAVISYDRSNEYYADSVKGRFTISRDNSKNTLYLQMNSLRAEDTAVYYCAKHMSMQEGAVTGDGQAAKEFIAWLVKGRVRADLVGDAFDVWGQGTLVTVSS
VL: QSVLTQPPSVSAAPGQKVTISCSGTTSNIANNFVSWYQQLPGTAPKLLIYDHNKRPSGIPDRFSGSKSGTSATLGITGLQTGDEADYYCGTWDTSLSAGAFGGGTKLTVL
notes: IgG
[1]
  MFI Ratio: 915
[2]
  Subtraction: 272000
[3]
  MFI Ratio: 914
[4]
  Bmax: 798000
[5]
  Median RL1-H of Expressing Singlets: 273000

B2: GLP1R-221-009 (antibody, V domains shown)
VH: QVQLVESGGGVVQPGRSLRLSCAASGFIFSNYGMHWVRQAPGKGLEWVAVISDEGSNKYYADSVKGRFTISRDNSKNTLYLQMNSLRAEDTAVYYCAKHMSMQEGAVTGAGQAAKEFIAWLVKGRVRADLVGDAFDVWGQGTLVTVSS
VL: QSVLTQPPSVSAAPGQKVTISCSGSSSNIGNQYVSWYQQLPGTAPKLLIYDDHKRPSGIPDRFSGSKSGTSATLGITGLQTGDEADYYCGTWDTSLSVGEFGGGTKLTVL
notes: IgG
[1]
  MFI Ratio: 1120
[2]
  Subtraction: 220000
[3]
  MFI Ratio: 1120
[4]
  Bmax: 215000
  EC50: 12.5 nM
[5]
  Median RL1-H of Expressing Singlets: 221000

B3: GLP1R-221-033 (antibody, V domains shown)
VH: QVQLVESGGGVVQPGRSLRLSCAASGFSFSNYAMHWVRQAPGKGLEWVAVISHDRSNKYYADSVKGRFTISRDNSKNTLYLQMNSLRAEDTAVYYCAKHMSMQEGAVTGEGQAAKDFIAWLVKGRVRADLVGDAFDVWGQGTLVTVSS
VL: QSVLTQPPSVSAAPGQKVTISCSGSSSNIGNEYVSWYQQLPGTAPKLLIYDNNKRVSGIPDRFSGSKSGTSATLGITGLQTGDEADYYCATWDTSLNVGVFGGGTKLTVL
notes: IgG
[1]
  MFI Ratio: 1020
[2]
  Subtraction: 240000
[3]
  MFI Ratio: 1020
[4]
  Bmax: 167000
  EC50: 9.04 nM
[5]
  Median RL1-H of Expressing Singlets: 240000

B4: GLP1R-221-017 (antibody, V domains shown)
VH: QVQLVESGGGVVQPGRSLRLSCAASGFTFSDYGVHWVRQAPGKGLEWVAFISYDESNKYYADSVKGRFTISRDNSKNTLYLQMNSLRAEDTAVYYCAKHMSMQEGAVTGEYQAAKEFIAWLVKGRVRADLVGDAFDVWGQGTLVTVSS
VL: QSVLTQPPSVSAAPGQKVTISCSGSSSNIGNTYVSWYQQLPGTAPKLLIYDDYKRPSGIPDRFSGSKSGTSATLGITGLQTGDEADYYCATWDATLNTGVFGGGTKLTVL
notes: IgG
[1]
  MFI Ratio: 1480
[2]
  Subtraction: 240000
[3]
  MFI Ratio: 1480
[4]
  Bmax: 250000
  EC50: 27.6 nM
[5]
  Median RL1-H of Expressing Singlets: 241000

B5: GLP1R-221-075 (antibody, V domains shown)
VH: QVQLVESGGGVVQPGRSLRLSCAASGFTFSNYPMHWVRQAPGKGLEWVAVISYDETNKYYADSVKGRFTISRDNSKNTLYLQMNSLRAEDTAVYYCAKHMSMQEGAVTGEGQAAKEFIAWLVKGIVRADLVGDAFDVWGQGTLVTVSS
VL: QSVLTQPPSVSAAPGQKVTISCSGSGSNIGNNDVSWYQQLPGTAPKLLIYDNDKRPAGIPDRFSGSKSGTSATLGITGLQTGDEADYYCGTWDTSLSNYVFGGGTKLTVL
notes: IgG
[1]
  MFI Ratio: 1170
[2]
  Subtraction: 242000
[3]
  MFI Ratio: 1170
[4]
  Bmax: 213000
[5]
  Median RL1-H of Expressing Singlets: 242000

B6: GLP1R-221-066 (antibody, V domains shown)
VH: QVQLVESGGGVVQPGRSLRLSCAASGFTFNNYAMHWVRQAPGKGLEWVAVISYDRSNEYYADSVKGRFTISRDNSKNTLYLQMNSLRAEDTAVYYCAKHMSMQEGAVTGEGQAIKEFIAWLVKGRVRADLVGDAFDVWGQGTLVTVSS
VL: QSVLTQPPSVSAAPGQKVTISCSGSSSNIGNNYLSWYQQLPGTAPKLLIYENNKRPSGIPDRFSGSKSGTSATLGITGLQTGDEADYYCGIWDRSLSAWVFGGGTKLTVL
notes: IgG
[1]
  MFI Ratio: 928
[2]
  Subtraction: 222000
[3]
  MFI Ratio: 928
[4]
  Bmax: 172000
  EC50: 57.4 nM
[5]
  Median RL1-H of Expressing Singlets: 223000

B7: GLP1R-221-034 (antibody, V domains shown)
VH: QVQLVESGGGVVQPGRSLRLSCAASGFPFSNYGMHWVRQAPGKGLEWVAVISHDRSNKYYADSVKGRFTISRDNSKNTLYLQMNSLRAEDTAVYYCAKHMSMQEGAVTGEGQAVKEFIAWLVKGRVRADLVGDAFDVWGQGTLVTVSS
VL: QSVLTQPPSVSAAPGQKVTISCSGSSSNIGNNPVSWYQQLPGTAPKLLIYENDNRPSGIPDRFSGSKSGTSATLGITGLQTGDEADYYCATWDRGLSTGVFGGGTKLTVL
notes: IgG
[1]
  MFI Ratio: 711
[2]
  Subtraction: 223000
[3]
  MFI Ratio: 711
[4]
  Bmax: 933000
[5]
  Median RL1-H of Expressing Singlets: 223000

B8: GLP1R-221-084 (antibody, V domains shown)
VH: QVQLVESGGGVVQPGRSLRLSCAASGFAFSNYGMHWVRQAPGKGLEWVAVISSDENNKYYADSVKGRFTISRDNSKNTLYLQMNSLRAEDTAVYYCAKHMSMQEGAVTGEMQAAKEFIAWLVKGRVRADLVGDAFDVWGQGTLVTVSS
VL: QSVLTQPPSVSAAPGQKVTISCSGSSSNIADNYVSWYQQLPGTAPKLLIYENNRRPSGIPDRFSGSKSGTSATLGITGLQTGDEADYYCGTWDVSLSVGMFGGGTKLTVL
notes: IgG
[1]
  MFI Ratio: 1070
[2]
  Subtraction: 221000
[3]
  MFI Ratio: 1070
[4]
  Bmax: 287000
  EC50: 4.09 nM
[5]
  Median RL1-H of Expressing Singlets: 221000

B9: GLP1R-221-092 (antibody, V domains shown)
VH: QVQLVESGGGVVQPGRSLRLSCAASGFIFNNYGMHWVRQAPGKGLEWVAFISYGGSNKYYADSVKGRFTISRDNSKNTLYLQMNSLRAEDTAVYYCAKHMSMQEGAVTGEGQAVKEFIAWLVKGRVRADLVGDAFDVWGQGTLVTVSS
VL: QSVLTQPPSVSAAPGQKVTISCSGTTSNIANNFVSWYQQLPGTAPKLLIYDNNKRPPGIPDRFSGSKSGTSATLGITGLQTGDEADYYCGTWDTSLSVGMFGGGTKLTVL
notes: IgG
[1]
  MFI Ratio: 712
[2]
  Subtraction: 232000
[3]
  MFI Ratio: 712
[4]
  Bmax: 145000
  EC50: 13.3 nM
[5]
  Median RL1-H of Expressing Singlets: 232000

B10: GLP1R-221-076 (antibody, V domains shown)
VH: QVQLVESGGGVVQPGRSLRLSCAASGFTFNNYPMHWVRQAPGKGLEWVAVISYDETNKYYADSVKGRFTISRDNSKNTLYLQMNSLRAEDTAVYYCAKHMSMQEGAVTGEGQAAKEFIAWLVKGIVRADLVGDAFDVWGQGTLVTVSS
VL: QSVLTQPPSVSAAPGQKVTISCSGTSSNIGNNDVSWYQQLPGTAPKLLIYENNKRHSGIPDRFSGSKSGTSATLGITGLQTGDEADYYCLTWDHSLTAYVFGGGTKLTVL
notes: IgG
[1]
  MFI Ratio: 747
[2]
  Subtraction: 236000
[3]
  MFI Ratio: 747
[4]
  Bmax: 799000
[5]
  Median RL1-H of Expressing Singlets: 236000

From patent US20250340658A1 (TWIST BIOSCIENCE, published 2025)
